According to PMC6061880:

How the values were obtained:
Assay in all cases: EMSA
Details in all cases: 10 mM Tris-Cl pH 7.5, 10 mM MgCl2, 100 mM KCl, 0.5 ug/ul yeast RNA, 7.5% glycerol, SUPERase In; 5 nM RNA; 30 min at 37 C; 6% native PAGE at 4 C
[1] = tested on: RsmN (Pseudomonas aeruginosa)
[2] = target: RsmA (Pseudomonas aeruginosa) (UniProt O69078)
[3] = tested on: T1, RsmN (Pseudomonas aeruginosa), ORF:fe30c157
T1 sequence: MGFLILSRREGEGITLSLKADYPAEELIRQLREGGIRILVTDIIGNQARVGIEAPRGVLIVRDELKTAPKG

Chain of RsmA (Pseudomonas aeruginosa) (O69078 whole entry): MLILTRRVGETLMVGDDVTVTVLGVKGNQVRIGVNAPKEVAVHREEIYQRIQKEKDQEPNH

Substance	Kd [1] [nM]	Kd [3] [nM]	binding [2]	also measured
5' CrcZ	112			
GGAAACUCUGUCCGCUGUGAUGGAUAACGAAGCGGAUGAACUCGAGUUGCGGCGGGUGCUCGCAGCUUGCGGCGAGGAUGCCGAGCUGCGUUCCACCUGGUCGCGUUACCAGUUGGCGCGGUCCGUCAUGCACCGCGAGCCUACCCUGCCGAAGCUGGAUAUCGCUGCGGCGGUCUCUGCUGCCCUGGCCGACGAGGCCGCUCCGCCGAAAGCGGAGAAGGGACCGUGGCGGAUGGUCGGUCGGGGGGGGGUUUUUUUU [mucA internal RNA]		148		Kd [2]: binds
GGACAAAAUAAGCAAAUGGAGCGUAUGACCAUGGACAAACCGGCCUCGCGGCAUUUCAGCGUCUUGAUCAUCGAUGAUGAACCCCAGGUGACCUCGGAACUCCGCGAACUGCUGGAAAACGGGGGGGGGUUUUUUUU [pprB leader RNA]		227	binds	
GGCAUCAGCGACCAAAGCAAUCCGUUUGCUAUUGAACUCCCAGCCUGGGAGAUAUCCCUGAAGCGACUGGCUCAAGGGACGGGUCGACAAACAAAAACAACAAGCCCGAAAUCAUAAUAAAAACAAAGCACGCACCUACUUGGGGGGGGGUUUUUUUU [3' CrcZ]			binds	binding [3]: no binding
GGGUCAGGACAUUGCGCAGGAAGCGCCAAAGACAAUACGGAAACUCAGGGAAUCCACCAUGGAUGGUGGCGUAGCACGGAUGUCAGGAUAGAGGUCUGCAAAACCCCGCCCAAAAGGCGGGGGGGGGUUUUUUUU [RsmY full length]			binds	binding [3]: binds
GGUAACGACUCCAGCACAACAAAAACAAAAUCGCGGAGGCGCAGCUAACUGAUUCUUUUGGAGAGGAGUUGCUGUCGGGACCCGUCCCGCAGCCAGUCGGAAGAAGAAUAAAACUGCCUUGAGGCAGCGCACAGACUGGUUGGAUCGCUCGACGAUCAUGGCAGCAUCAGGGGGGGGGUUUUUUUU [5' CrcZ]		112	no binding	
fhA1 leader RNA	61			
mucA internal RNA	148			
pprB leader RNA	227			
pslA RNA (non-specific)	> 1000			
